Data from the DeepSol protein solubility set.

Assay: soluble on expression in E. coli; label from the status in PepcDB or PDB records

Row | Sequence | soluble on expression in E. coli
1 | MCMGTRSKRSERGRCRMHLERCVCPAIPRYDLTTRVVLVMHHREYPKPTATGPLALAALPNSELRIHGERDSLLDLGDLATPERRTLLLYPGDDVPVLTRELLERDRRPVTLVVPDGTWRQASRMGRRLPGLDHAEMVRLPEGLPTEWGIRRENHPQGLATFEAIARALGIIESPAVQTGLEELFRLMVRRTLSAGGRAILEHHHHHH | soluble
2 | MGSDKIHHHHHHMNKEIPKFLENTQIEKFICNELDYKKEILRELKELLENFNTINVKNSINSKYIALLMLSIFNAFHFKKELNKNLVNSLDAIIFAIKSIGTDESFIVLFKAFLHANVEVSSNEDAPGEIIIKLLGNIKSPIEFNIAAKNQNKLKKITAKHAGFKKALTSNYMPKDYKNSVYEFIKILIPIGRIVKIIDKKQIEIKGTRTKKFSTADHFF | not soluble
3 | MAHHHHHHMPFVVTHPPDTAELVEGEPFYSLAMYTLLSSTTDVVPALRNFTFQLRAFNVLPPYDAVGLLSGIDSTGLIVWGGALGFLEWLVQHPDRLQARMRNVSKAQAHVIELGCGSGVVAVALCALLRGLDLPDLVEKSISSSPAVCVWATDGNPECVSLAERNLRAQLKEPCTSCPGVAASAALLRWGDAAAVQEALQTSFPGCTAASSITVVAADVLYDAAVVPLLVSTVAEIARVHVAGAGPSTLPGSVEWWLAYTPRSLTRALNEAIFQALLDSIADHGWTYELVDLPAGAVATGFEENPDCSVPALSGCILVVQVTCDTRS | not soluble
4 | MPYPIEEKLVIGVASSALFDLSVSDDIYQTQGVEAYRQHQEQNLDEPFPRGVALPFIRRFLSINKAFPDQLPVEVVLLSRNSPETGLRVFRSISHYQLDITRAAFMSGRSPYEYIPAFNASLFLSANEEDVQKAIDANYPAGRVLPTRIYDDEIDTELRVAFDFDGVIADDEAESVYKRNDNLDDFQEHERMHKSTPHSPGPLADLYRKLSRIRMLEDRKLAEDPTYQRILRIAIVTARNAPSHERVVTTLKDWGVSPDECFFLGGMDKPRVLSILKPHVFFDDQRTHLQSPAGNLPMVHVPFGVANRVRSPQAPDVKQDQLPISASSCMPLEHHHHHH | soluble
5 | MQQNIQYTYSSDPRSGGNQNQQLHGISQFQQNSYQPTTYSNSNANNFHSSNSATFIPNSVTQTPQRRMGEEKSLVNMLDAYFIDSTTPSTSTSWNNQQPVQMSSIQQSVGSYNQQIPQLKVGDVDLQVEGMNVKLSSSPDKGEKDRVKKARQAEAARMRYHRLSNEEKRELNLKRTLAQKRKRQREKEMEELESILRETNDIQEDPDITEQLREKRMRAKWAEAARTRYARMTPEERRAHNTRRRMRQMQNAMSAIKACGMATGDPQKDDEAVRLHIKTQNAKKAEAARQRYHRMNDDEKRVYNQRRTEAFRRRRMEEEMLLAMPIGRINGEALDRAQQIVVRNAKRAEAARLRYQRMTPDQRKSYNQKRYTPKRRRNEMDDMISAGQMAVGSSGTITMGTGTPAKKDDMDALSSLERDVVKRTQHAQQILLRQRANQSSGTPRSVTPPPQAYIISNGQQQHQQLVGNQGNNGIGQHQVLHQGHMQQQQIQVSHQDFQQSSQSIPQNIYTSGMIIQNQGQQQQGQQQQQGQSQQILNNPYRT | not soluble
6 | MGSDKIHHHHHHMSTALFHHHSTLQDQLVAIHAALRASLPDIDRIAVAIYDTKTDALHTFIHSSDGRHPLDSYATTLTGVPSLAALATSGRIRVLNDLSPLALTGAHHTQVIAKAYRSSLTVPFYKGKALSGFLFFNSQQPDYFTSRRIDTLALAAEMICSRVIDTVISVEMLTSTIQIAKDISHFRDEETGAHLDRVANYARLIAETMGKEPSALPPGRHPVLDDEFAQMIFLFAPLHDIGKVAIPDHVLLKPGPLTPEERTIMRTHSDKGLAICRRILENVDFISGTQAAMLCDIVHAHHEAWDGSGYPRGLSGADIPLAAAIVTVADVFDALTSARPYKKPWSTEDAFAYLQEKSGQLFNPACVRAFLAHRDDVLAIRARFRDEVIPEAFQTPQTPQSKADKV | not soluble
7 | MNKIETDTLLLPVIGESPAGDDIEYDPVYSEIREARQNDPDYMSQGEWAVSEPRRADWRKVRKLCEVTLRNKSKDLQISCWYVESLTHLYALEGMHCGLEYLAKFISQYWTTCWPSQEEGQEIRYSKLVRLDIDLSEYLKAYPLLEDKEITLSEWYKVLSFEHGASLSEAGKERLIESEGDHSVESFKRAVGKYNPRKVSEQLLQLYDLPDKIDEIESSYFFHTHEDIHHIFAKTRHIISEITELLSRFLPQETLDHSSVSQFLGKPDSRDTRTALPEEKKEFYSALTPSTDKEMSREKAIEQLEKIAIFFRQSEPTSPVPYLLERAIRWSTMTMSEWLEELLKDNDSMEQINRVLKG | not soluble
8 | MDFHIDEKYKGMGKGRTFLIKTYGCQMNAHDTEVMAGILNALGYSATSDINEADVILINTCAIRENAENKVFSEIGNLKHLKKERPDCLIGVCGCMSQEESVVNKILKSYQNVDMVFGLEHHHHHH | not soluble
9 | MGSDKIHHHHHHMPFDGLLLHKAVRELKELEGEHLRQIYQPTTVDYYFLFRSATVRVCLRPDVSHVAIAEKEEASEKMPSSFTMLLRKELKGAKLLKVEQIGMDRTLRFSFEKFDEIEGIVQKDLYIEIMGIHSNMILVRDRRIIDAHRRIVTKKREILPGREFVIFPSGKVSIFELRELPPESEKTIRNVLLSLLEGFSPVSVEELIHRTGYELDTPWKAVDQRKILEVLEEIKKELELPGVFVYYEASHPVEVSAFRFTMLSLKERYFEKPSEGINEFVRWKEEKSTFENTKNRFIKVVVNRIEDLEDLEEKLSRELSEAEKAERYKKLGDLIVQNLWSIKGKSGEVELTDWETNEKIVVDVGKDPAQTAQKFYNTYKKLQRKKEQVEKRLEEIQREKEYLYQLWQTIEDAEDLETLEEIEEEMREFGLLKERKTKKQKSKKTRFREVYYGGFKILIGRNNKQNDELVRTSSKEDLWFHAHEMPGAHVVVKTEGKKVPQEVVEYAASLAAGYSKGKNSGKVPVDYTFIKYVRKPKGFKPGMVIYKNYKTILVEPRRIEG | not soluble
10 | ASVKDTYTDRLDDWNGIIAGNQYYDSKNDQMAKLNQELEGKVADSLSSISSQADRIYLWEKFSNYKTSANLTATYRKLEEMAKQVTNPSSRYYQDETVVRTVRDSMEWMHKHVYNSEKSIVGNWWDYEIGTPRAINNTLSLMKEYFSDEEIKKYTDVIEKFVPDPEHFRKTTDNPFKALGGNLVDMGRVKVIAGLLRKDDQEISSTIRSIEQVFKLVDQGEGFYQDGSYIDHTNVAYTGAFGNVLIDGLSQLLPVIQKTKNPIDKDKMQTMYHWIDKSFAPLLVNGELMDMSRGRSISRANSEGHVAAVEVLRGIHRIADMSEGETKQRLQSLVKTIVQSDSYYDVFKNLKTYKDISLMQSLLSDAGVASVPRTSYLSAFNKMDKTAMYNAEKGFGFGLSLFSSRTLNYEHMNKENKRGWYTSDGMFYLYNGDLSHYSDGYWPTVNPYKMPGTTETDAKRADSDTGKVLPSAFVGTSKLDDANATATMDFTNWNQTLTAHKSWFMLKDKIAFLGSNIQNTSTDTAATTIDQRKLESSNPYKVYVNDKEASLTEQEKDYPETQSVFLESSDSKKNIGYFFFKKSSISMSKALQKGAWKDINEGQSDKEVENEFLTISQAHKQNGDSYGYMLIPNVDRATFNQMIKELESSLIENNETLQSVYDAKQGVWGIVKYDDSVSTISNQFQVLKRGVYTIRKEGDEYKIAYYNPETQESAPDQEVFKKLEQHHHHHH | soluble
11 | MTAILLHNVAKSYRSYDHPWETLWEVFTKTRRHREWTALHPLSLEIAHGEVVGIVGTNGAGKSTLLKLIAGTLTPSAGDIRVNGHVAALLELGAGFHPDMTGRENVYLGASVMGLSSERVDRLYDGIVEFAGLGEFMDQPVKTYSSGMYMRLAFAVATAADPDVLILDEALSVGDGAFARKSFERIIGYKDAGKTILFCSHSLYQVEAICSRVLWLDHGRLVMDGEPARVVSAYAEFLGGGGEGCGTPDQPAPAAVAGSGVGRLTKVEVEADGVEGRKLTVRSGQTDLTVAVGFASDPALPPPSVGLTITGSNGWAVTSASTSNDGLTISRRPDGSGEVELSFPRFPLLKGAYWVNVFLLCEQGIHLYDRIEHAAELEVVQDGLEQGVVSLPRRWSVNGAPASAVSPTVPTVAAWLEHHHHHH | not soluble
12 | MGSDKIHHHHHHMNYRTIAKNGSTEETIKKSRFICQAKRITNEAEGRDFITQIKKEHYKARHSCSAMIIGENSDIKRSSDDGEPSGTAGIPMLSVLEKKQLTNLVLVVTRYFGGIKLGTGGLIRAYSGGAANTLKALGIVEVKKQTGLRLELTYPQYQTFANFLKEHQLQEYDTDFSVTVNTTIYVDKKDIEFTLDQLTEFYQGKLKSHVAGNQIIEVPVI | not soluble
